The nature of this series: soluble on expression in E. coli; label from the status in PepcDB or PDB records.
Take “MPIADTVTLNSGYEMPVIGYGTWQLPKNLAAERVRDALEAGYRHIDSALSFKNQEEVAAGIKDWCKIRKVRREELFLSSKIWNTYHSRNRCMQQIDEMLEIFETTYMDLIVIHWPFGWAEDEPPGERGLWPRGANGKMRYSDVDYLETWKALEDAHRSGKIRSIGLANFNIGQVEQVWTKGLIKPAVLQVEMNPFLDQEEIRQFCREKGIILTAFMLTGNPGSALYRKHEDPNLLYNETLQSIAKGHGKSVVQVLVRWAIDLRTTALVKSSESKRIRQNINIFKFRLTSQEIARIKALNIDFRILNPLLGNYDHPYFPWPHVQEEQLPQKVEEPDPENL”: the “soluble on expression in E. coli” value was “not soluble”.

On to “LTFSLNFTNKSNDIYGTGWLFDWKGDEKALGIDGSFVPSITSNIDNSLLKDDQFTVYLATNLHVADALRNDQDYEPYKKDQNKQDFTENTKTEFFSLGK”, for which the “soluble on expression in E. coli” value is recorded as “soluble”. In the case of “MSLKTLNIYLMRHGKVDAAPGLHGQTDLKVKEAEQQRIAMAWKTKGYDVAGIISSPLSRCHDLAQILAEQQLLPMTTEDDLQEMDFGDFDGMPFDLLTEHWKKLDAFWQSPAHHSLPNAESLSTFSQRVSRAWSQIINDINDNLLIVTHGGVIRIILAHVLGVDWRNPQWYSTLAIGNASVTHITITIDDQIYASVRSIGVPLVEEGHHHHHH”, the “soluble on expression in E. coli” value is given as “soluble”. Regarding “MNKKSVGQPPEGLHETKSLASALPEKNAEQRPKYVQIVALPSEIKSRELPIAPDNVVYFNGPTHYLSALYPCTVVVDGNEYNSVEHYYQACKLYVLTGEQSAAQLKASETPIEVKKATKNILKEAKIPAKKISAWKDKDSIAVLKHVIYHKFNQNDELKVKLLDTGDKILIQTYIGDTYFAAGANAKYTSTWVDRHVNQSLKYPENVVVDNVQYLPLVANGKNVLGWILMQVRDELRMRSSA”, the “soluble on expression in E. coli” value is “soluble”. As for “GFIELHAHLAFQKVPADIVLRHGVTTLRDVGGPVHPPYGGEGSLRVLTSGRIITAPHGYPIVTMGARDLAIPVASEAEAREAVRHLVGEGAVIIKIALEPGSEAGAPWSSHHDHAHHDAAHTASAVTHHHAHAASHDQSAWPMLPEPIVKAVVDEAHRHQRKVSAHVAEPSGVQVALNAGVDEWAHMPCNPIPEPLLKQARAQNVTIIGTLDTLSKCSGIAHNTMVWTELGGELLYGTEIAHPDIPWGIDAQELMYLMHLGKMKLLDALGAATAKAGRYLGIPMLGTIQPGAPADLIAIRGNPEQQLKRLEYPDLVISGGHIVVNHFSSLP”, the “soluble on expression in E. coli” value is given as “not soluble”. In the case of “MGSDKIHHHHHHMDLDRIKGEIVAFVEGRKSEFAAIAEDLYLHPETGLNEVRSSALLADFLEREGFRVERGIAGLPTAFRAETGEGGPVIAFMAEMDALPVMGHACGHNVIAAAAVGAATALRSILPPDAARIVVLGTPAEEMGIGKVDMIANGAFDGVEFALMVHPSSRRYVIKHYLGLARVRFTFFGKPAHAAAYPEEGINALDGVIQTFNGISALRQQLRQDVRVHGIITEGGVAPNIIPERASAHFYVRADDLAELERAKARVLACAEGAALATGCRLQVDADPRIMAPLKVNRIFSDLYSAQLAYLDLQESENQPDKNKGSSDIGNVSQIVPTIHPHVPIGDGINIHSEAFARATVSGKGKAAVAEGATALALTAAELAARPDIREEIWREFRS”, the “soluble on expression in E. coli” value is “not soluble”. Under “MGSDKIHHHHHHMKMCYNEKRKNMTLRHPGISPTNDSVAKKIFSNPEITWQFIRDMLDLPAKNVTILEGSNIHVLPSLPYSAQDFYTSINVLAELDNGTQVIIEIQVHHQNFFINRLWAYLCSQVNQNLEKIRQREGDTHQSYKHIAPVYAIAIVNSNYFQDDLAFHSFSMREDTTGEALTITNNSQENHLVKMAFLELKKYRETSKDKIRKPWLEFFGNKPFTQQPERAISQAYQLLDYKSWSEEDRKMFSEQRRREEQALLAQDYALEQAEEKGLERGKVEGREEGKLFAFLDMVRQGLLTSEVASQQLGMTVAEFEALL” stands “not soluble”; under “MGSDKIHHHHHHMKSWPRPCSWACANPETKGRAYRTMSSSPTISPASDTFAAMTDDHRLAEFIREQASATRVVIQARKRLSGGAIQENWLLDLLIEGGPWAGVRRWVLRSDALSALPASLDREQEFAVLQVVYQAGVKVPRPLWLCRDVRVHGRVFFLMEYVPGSAAGRALSTGAGPQGRAQLATQLGANLARLHQVRPPCATLCFLSVPDSSPALATIDAYRRYLDTLADAYPVLEWGLRWCELHAPRSSTLCLLHRDYRTGNYLASEEGLEAVLDWEFTGWGDPCEDLGWFTARCWRFTRPDLEAGGIGQLEDFLRGYHEVSSLCIERSRLHYWQVMATLRWAVIALQQGQRHLSGEEPSLELALTARLLPELELDILHMTGAEAP”, “not soluble”. As to “MRAEDLFNDPKSYKRWYELHSKLYENERNVVRSFNLKDCLDVGSGPDIFHEEIGGRIVALDISLLMLKESKSDEKVLADALHLPFRDNSFKCVFSSVTVCFIEDVKGFIREMARITKERAIICFIARDSPWGEYYENLGKSGHKYYSHARFISRREFYVIINDFMKISRIRSTLKKMSETEIDGVYNDDSGSFICVEAIPMKPEPLSLSLNRHSGADPADPIS”, the “soluble on expression in E. coli” value is given as “not soluble”. Under “MMPRMGPPAAARQDNPLHVSFRNPQWPPNFINKDNVLDYFCNQANAFYEMNSCNQQIRMQNIVNRTVEECLRTMPGIQYVLWYSQPPLFIICKQRRNNVTNVSPIAYYYVINGSVHQAPDMYSLVQSRLLGALEPLRNAFGEVTNYSRYNTAKGYYWEFKNKPNVKKREEEKKEDEEEKLEDRSTNFQKTRTMMLLNQLFSEMPAEDALEREEKEEVEEEEEETLKTEEPTTSTDEPKFAEPTARTTSKQ” stands “not soluble”; under “MSLRTIKNLRDMIEQSSKLFANKDAFRVKTKDNSYRGITFAEFKNDIDAFGTALLDLLGTEKGFVAVIGENRYEWCVTYLATINGVGVVIPLDKELPLPELENLLKQSNANAIVYSGKFHDAIKEMSSRLSNIKYFINMNTNEHEDDKFLSFWVLLEKGKKLLESGKKDYLNAPIDENAMSAMIFTSGTTGQAKAVMLSHKNICSNMMAVSASVYMDSTDSVLSILPLHHTYECTAGFLTMIYNGATITFNEGLKYIGKNLKEAQPTILILVPLILESMYNKIWEQASKDKSLKFKLKAGLFISNLLYKVFKIDIRRKLFKSVIDNVGGKLRLVISGAAALDPEVAKGFEAMGIKVLQGYGLTEASPIVAVNRDKSYRHDSVGLPLPGLDVEIINPDKEGFGEIIVKGDSVMLGYYNNDDATKAVLKDGWLYTGDLGRMDEKGFIYITGRKKNIIVTKTGKNIFPEEVEAYLNKSPYIKESLVSGRENDKNDETIVVAQIVPDMDAIKAKLKTDTVPSPEEVYKLIKAEIRAINKNMPVYKRVVDITIRENEFAKTSSKKIKRYLEKTNEGHHHHHH”, “soluble”. In the case of “GSAMASNAVLYKSNHNVVYSCKYHIVWCPKYRRKVLVGAVEMRLKEIIQEVAKELRVEIIEMQTDKDHIHILADIDPSFGVMKFIKTAKGRSSRILRQEFNHLKTKLPTLWTNSCFISTVGGAPLNVVKQYIENQQNSNRPKQKEKWKSYVDNLQTKAL” it was “soluble”.

“MGHHHHHHSHMASPSKAVIVPGNGGGDVTTHGWYGWVKKELEKIPGFQCLAKNMPDPITARESIWLPFMETELHCDEKTIIIGHSSGAIAAMRYAETHRVYAIVLVSAYTSDLGDENERASGYFTRPWQWEKIKANCPYIVQFGSTDDPFLPWKEQQEVADRLETKLHKFTDCGHFQNTEFHELITVVKSLLKVPA”: the “soluble on expression in E. coli” value is recorded as “not soluble”. In the case of “MSLKPGTLISMMTEEEANSITHLTLTGKLNAEDFRHLRDEFPSLKVLDISNAEIKMYSGKAGTYPNGKFYIYMANFVPAYAFSNVVNGVTKGKQTLEKVILSEKIKNIEDAAFKGCDNLKICQIRKKTAPNLLPEALADSVTAIFIPLGSSDAYRFKNRWEHFAFIEGEPLETTIQVGAMGKLEDEIMKAGLQPRDINFLTIEGKLDNADFKLIRDYMPNLVSLDISKTNATTIPDFTFAQKKYLLKIKLPHNLKTIGQRVFSNCGRLAGTLELPASVTAIEFGAFMGCDNLRYVLATGDKITTLGDELFGNGVPSKLIYKEGHHHHHH” it was “not soluble”; in that of “MSLKSSTEKKLAAARGTAELIVEDAKKEAETTKKEALLEAKEENHRLRTEIENELRGRRTETQKAENRLLQREENLDRKDTSLSKREATLERKEESISKRQQQIEEKESKLAEMIQAEQTELERISALSKEEAKSIILNQVEEELTHDTAIMVKESENRAKEESDKKAKNILSLAIQRCAADHVAETTVSVVTLPNDEMKGRIIGREGRNIRTLETLTGIDLIIDDTPEAVILSGFDPIRREIARIALEKLVQDGRIHPARIEEMVDKARKEVDEHIREVGEQATFEVGIHSIHPDLIKILGRLRYRTSYGQNVLNHSLEVSKLAGILAGELGEDVTLAKRAGLLHDIGKAIDHEIEGSHVEIGVELATKYKENDVVINSIASHHGDTEATSVIAVLVAAADALSAARPGARSETLENYIRRLEKLEEISESYDGVEKSYAIQAGREVRIIVEPDTIDDLSSYRLARDIRKRIEEELDYPGHIKVTVIRETRAVEYAKEGHHHHHH”, “not soluble”. Consider “MSKLSIRNLTKIFGPHPEKALGLLEQGLGKEEIHRRTSHAVGVDRASFDVEEGEIVVVMGLSGSGKSTLVRCLNRLIEPTAGTVTVDGRDVTSMPVDELRRLRQRSFGMVFQNFALFPHRTVLQNAAFGLEAMGVPRAERERQAMVSLERVGLAEWAASRPAQLSGGMQQRVGLARALSLDPDILLMDEAFSALDPLIRRDMQDELLRLQDDLQKTIVFISHDLDEALKLGDRIVLMRDGAVVQIGTPEDILTNPADDYVARFVGEADVTKVLTAGSVMKRSEAVAVLGIDGPRTALRKMRRNAIATLFVLDERHRLVGLITADDAARLAAEGVRELGSIVRRDIATVPPEAPATELISLMADLPHPLAVVDERGRLAGVIVRGLLLGALAERGGVALEHHHHHH”, for which the “soluble on expression in E. coli” value is “not soluble”. Under “MSQFISLTQYQLIEVQGADAEKYLQGQLTSDVVRLASGATTLTAHCDPKGKMNAIYRLFKVSSEQFFLLVKKDILPSGLDALKKYAVFSKVSFDLRDWQIIGVIGEKCGKITPNFSLEIDEKRSILLNETELPVNFNGDEKIWEVADIQAGLPNLSPQTQNEFIPQALNLQAIEQAISFTKGCYIGQETVARAKYRGANKRAMFIFKVQTQQEAEIGSEIEMQLEANWRKTGTITSAVNLDGVLWLQVVMNNDIDSEQQFRLLNSEILLERVQLPYSITELEHHHHHH” stands “soluble”; under “SLNAFDELVFAPMYVTSVDGRQAGVFHAHKGRRLIAAHRKAGTTPFVGASRVNNSITGFADTPALFPGGWITLIYNGDGGTGHAKYQPAPFNASDDVIALEPISKQATEPALLLIASMLTLQCVPKFGFGYKLTLHRLDRQKIMIPVLTNADGEQVVNWSGLTRHGKRLLNEAKTRARAVRELTSTAKPKLPELNYMPMFITDVFESMNAAGKWFDFAKACLSGKPFAPYIARSGGGNGVGSFVPHQGFAPPNAGNAITIGVSTSTVFYQPVPFYTSKEIQVLRHHKLTADSGLILVALLREQMGKFQWGNGASLERLKATRIMVPAMVGADGEDVVDWDGLSRYGRALRARVELAINAVL”, “not soluble”. As for “MRMKQTIPSSYVGLKINEWYTHIRQFHVAEAERVKLEVEREIEDMEEDQDLLLYYSLMEFRHRVMLDYIKPFGEDTSQLEFSELLEDIEGNQYKLTGLLEYYFNFFRGMYEFKQKMFVSAMMYYKRAEKNLALVSDDIEKAEFAFKMAEIFYNLKQTYVSMSYAVQALETYQMYETYTVRRIQCEFVIAGNYDDMQYPERALPHLELALDLAKKEGNPRLISSALYNLGNCYEKMGELQKAAEYFGKSVSICKSEKFDNLPHSIYSLTQVLYKQKNDAEAQKKYREGLEIARQYSDELFVELFQFLHALYGKNIDTESVSHTFQFLEEHMLYPYIEELAHDAAQFYIENGQPEKALSFYEKMVHAQKQIQRGDCLYEI”, the “soluble on expression in E. coli” value is on record as “not soluble”.

The values above are taken from the DeepSol protein solubility set.
